The term stoichiometry N denotes the number of molecules, sites or subunits per partner or assembly.

Experiment [1] concerns the target T1, IRF3 (endogenous, 293T cells) (human (endogenous in 293T)), Q14653.
T1 chain: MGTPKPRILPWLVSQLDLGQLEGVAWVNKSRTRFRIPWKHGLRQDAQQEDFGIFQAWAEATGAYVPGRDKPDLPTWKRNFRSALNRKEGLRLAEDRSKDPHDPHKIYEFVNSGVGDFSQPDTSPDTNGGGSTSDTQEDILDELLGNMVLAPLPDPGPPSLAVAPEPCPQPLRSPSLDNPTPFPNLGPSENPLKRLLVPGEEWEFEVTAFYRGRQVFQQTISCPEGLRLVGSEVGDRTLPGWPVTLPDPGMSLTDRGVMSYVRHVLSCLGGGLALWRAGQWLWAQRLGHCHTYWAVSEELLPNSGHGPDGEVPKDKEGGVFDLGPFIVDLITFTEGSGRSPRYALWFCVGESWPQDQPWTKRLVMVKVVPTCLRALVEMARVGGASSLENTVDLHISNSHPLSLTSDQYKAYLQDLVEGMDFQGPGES
The experiment in a line: native gel or EMSA. The following applies: remark: other sources report otherwise. For orientation: Mobility shift assays separate free from complexed probe on a gel.

For experiment [2], the target named is T2, IRF3 (endogenous, MEFs) (mouse (endogenous in MEFs)), P70671.
T2 chain: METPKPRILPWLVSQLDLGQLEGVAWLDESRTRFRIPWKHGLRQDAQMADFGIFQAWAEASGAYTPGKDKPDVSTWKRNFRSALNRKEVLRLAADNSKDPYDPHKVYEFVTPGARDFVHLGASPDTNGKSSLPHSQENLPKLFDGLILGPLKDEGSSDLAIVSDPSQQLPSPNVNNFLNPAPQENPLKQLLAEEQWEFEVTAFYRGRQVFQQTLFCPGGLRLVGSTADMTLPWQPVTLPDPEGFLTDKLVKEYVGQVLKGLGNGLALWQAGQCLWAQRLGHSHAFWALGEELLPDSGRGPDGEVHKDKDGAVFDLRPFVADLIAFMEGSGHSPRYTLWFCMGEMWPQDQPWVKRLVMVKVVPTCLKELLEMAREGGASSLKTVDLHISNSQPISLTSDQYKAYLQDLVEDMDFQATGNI
The experiment is described as follows: native gel or EMSA. The settings on record: remark: other sources report otherwise.

B1: IRF3 (endogenous, 293T cells), Q14653 1-427 (natural protein)
chain: T1 chain
In the case of B1, the stoichiometry N in experiment [1] is 2.

B2: IRF3 (endogenous, MEFs), P70671 1-419 (natural protein)
chain: T2 chain
In experiment [2], B2 came in with a stoichiometry N of 2.
